assay: soluble on expression in E. coli; label from the status in PepcDB or PDB records

Question: With “MGAMESLRWMEARLPEILKDLEAFVRRESPSGDLEGLEAAARFLEEAFGPLEGRLSRKDTPAGPVLLLKREGEGAPVLLLCHYDTVHPKGSFPEPFRLEREKAIGPGVYDMKGGIIALLYALRYAEATGRRLPALEVLFTPDEEVGSPESRPLIEAAAKKARAVLVLEPPTAEGHLKVARKGVGLYRLRAIGKAAHQGVEPEKGVNAILELAHQVLKVAALEDREKGTTLGPNRIRGGTATNVVAEEAEVEIDLRAWTLEEVQRVEEGLKALKPVLPGARLVLSGGLNRPPMEPTEASLALFAKARAIGEALGLRLEPGRVGGGSDGNFTAALGVPTLDGLGLFGGNAHQKTEYVVVPEIPRRTALLAELLAAL” as the sequence, how does the “soluble on expression in E. coli” value read?
Answer: The value was “soluble”.

Question: For “MGDAPSPEEKLHLITRNLQEVLGEEKLKEILKERELKIYWGTATTGKPHVAYFVPMSKIADFLKAGCEVTILFADLHAYLDNMKAPWELLELRVSYYENVIKAMLESIGVPLEKLKFIKGTDYQLSKEYTLDVYRLSSVVTQHDSKKAGAEVVKQVEHPLLSGLLYPGLQALDEEYLKVDAQFGGIDQRKIFTFAEKYLPALGYSKRVHLMNPMVPGLTGSKMSSSEEESKIDLLDRKEDVKKKLKKAFCEPGNVENNGVLSFIKHVLFPLKSEFVILRDEKWGGNKTYTAYVDLEKDFAAEVVHPGDLKNSVEVALNKLLDPIREKFNTPALKKLASAAYPDPSKQKPMAKGPAKNSEPEEVILEHHHHHH”, which “soluble on expression in E. coli” value is on record?
Answer: Its value is “soluble”.

Question: Which “soluble on expression in E. coli” value does the source give for “MGDEDDDESCAVELRITEANLTGHEEKVSVENFELLKVLGTGAYGKVFLVRKAGGHDAGKLYAMKVLRKAALVQRAKTQEHTRTERSVLELVRQAPFLVTLHYAFQTDAKLHLILDYVSGGEMFTHLYQRQYFKEAEVRVYGGEIVLALEHLHKLGIIYRDLKLENVLLDSEGHIVLTDFGLSKEFLTEEKERTFSFCGTIEYMAPEIIRSKTGHGKAVDWWSLGILLFELLTGASPFTLEGERNTQAEVSRRILKCSPPFPPRIGPVAQDLLQRLLCKDPKKRLGAGPQGAQEVRNHPFFQGLDWVALAARKIPAPFRPQIRSELDVGNFAEEFTRLEPVYSPPGSPPPGDPRIFQGYSFVAPSILFDHNNAVMTDGLEAPGAGDRPGRAAVARSAMMQYELDLREPALGQGSFSVCRRCRQRQSGQEFAVKILSRRLEANTQREVAALRLCQSHPNVVNLHEVHHDQPHTYLVLELLRGGELLEHIRKKRHFSESEASQILRSLVSAVSFMHEEAGVVHRDLKPENILYADDTPGAPVKIIDFGFARLRPQSPGVPMQTPCFTLQYAAPELLAQQGYDESCDLWSLGVILYMMLSGQVPFQGASGQGGQSQAAEIMCKIREGRFSLDGEAWQGVSEEAKELVRGLLTVDPAKRLKLEGLRGSSWLQDGSARSSPPLRTPDVLESSGPAVRSGLNATFMAFNRGKREGFFLKSVENAPLAKRRKQKLRSATASRRGSPAPANPGRAPVAAKGAPRRANGPLPPS” here?
Answer: The value was “soluble”.

Question: For “MGDKGTRVFKKASPNGKLTVYLGKRDFVDHIDLVEPVDGVVLVDPEYLKERRVYVTLTCAFRYGREDLDVLGLTFRKDLFVANVQSFPPAPEDKKPLTRLQERLIKKLGEHAYPFTFEIPPNLPCSVTLQPGPEDTGKACGVDYEVKAFCAENLEEKIHKRNSVRLVIRKVQYAPERPGPQPTAETTRQFLMSDKPLHLEASLDKEIYYHGEPISVNVHVTNNTNKTVKKIKISVRQYADICLFNTAQYKCPVAMEEADDTVAPSSTFCKVYTLTPFLANNREKRGLALDGKLKHEDTNLASSTLLREGANREILGIIVSYKVKVKLVVSRGGLLGDLASSDVAVELPFTLMHPKPKEEPPHREVPEHETPVDTNLIELDTNDDDIVFEDFARQRLKGMKDDKEEEEDGTGSPRLNDR”, which “soluble on expression in E. coli” value is on record?
Answer: The value was “soluble”.

Question: With “MGDLIAITYHSNALQSERQMYVWTPPGYTGMGEPLPVLYFYHGFGDTGRSAIDQGRIPQIMDNLLAEGKIKPMLVVIPDTETDAKGIIPEDFVPQERRKVFYPLNAKAADRELMNDIIPLISKRFSVRKDADGRALAGLSQGGYQALVSGMNHLESFGWLATFSGVTTTTVPDEGVAARLNDPAAINQQLRNFTVVVGDKDVVTGKDIAGLKTELEQKKIKFDYQEYPGLNHEMDVWRPAYAAFVQKFKIRHLEHHHHHH” as the sequence, how does the “soluble on expression in E. coli” value read?
Answer: Its value is “not soluble”.

Question: For “MGDNENGDNLNNHQDSGSGSHHDAAPQQQQNNMSHQQQPQQQQHNEHNKQQQQQRDDVCRDFLKNICNRGSRCKFYHPSEAPPISDHDYNFCIDYQNRGCQRDNCRFVHAPRDEVERYKTTRELTLILARAIAAVGHGDTIGGIPICKEFQTGRCARGVNRCRYWHVNVDLERDRRNRGLPPSNDFGPGGGGGGMGGGGGSGGSGGGSGRFPPPPPPYGGGGRRRPYDDYDSDPIKRGRYGSDDRLMELEKRNAELSKEVDSLRRELQREHDRYEDLYALFRQQSGGAPAPPKAAAAASAVNDYYGTWGQKAPGW”, which “soluble on expression in E. coli” value is on record?
Answer: Its value is “soluble”.

Question: With “MGDSILSQAEIDALLNGDSDTKDEPTPGIASDSDIRPYDPNTQRRVVRERLQALEIINERFARQFRMGLFNLLRRSPDITVGAIRIQPYHEFARNLPVPTNLNLIHLKPLRGTGLVVFSPSLVFIAVDNLFGGDGRFPTKVEGREFTHTEQRVINRMLKLALEGYSDAWKAINPLEVEYVRSEMQVKFTNITTSPNDIVVNTPFHVEIGNLTGEFNICLPFSMIEPLRELLVNPPLENSRHEDQNWRDNLVRQVQHSELELVANFADIPLRLSQILKLKPGDVLPIEKPDRIIAHVDGVPVLTSQYGTVNGQYALRVEHLINPILNSLNEEQPK” as the sequence, how does the “soluble on expression in E. coli” value read?
Answer: Its value is “not soluble”.

Question: Which “soluble on expression in E. coli” value does the source give for “MGDSVLSAIQQTITQRKSANPSESYVAQLLHKGEDKILKKVIEEAGEVLMASKDKNPSHLVYEVADLWFHTMILLTHHDLKAEDVLDELARRQGLSGLVEKAARTES” here?
Answer: The value was “not soluble”.

Question: With “MGEKLELRLKSPVGAEPAVYPWPLPVYDKHHDAAHEIIETIRWVCEEIPDLKLAMENYVLIDYDTKSFESMQRLCDKYNRAIDSIHQLWKGTTQPMKLNTRPSTGLLRHILQQVYNHSVTDPEKLNNYEPFSPEVYGETSFDLVAQMIDEIKMTDDDLFVDLGSGVGQVVLQVAAATNCKHHYGVEKADIPAKYAETMDREFRKWMKWYGKKHAEYTLERGDFLSEEWRERIANTSVIFVNNFAFGPEVDHQLKERFANMKEGGRIVSSKPFAPLNFRINSRNLSDIGTIMRVVELSPLKGSVSWTGKPVSYYLHTIDRTILENYFSSLKNPKLREEQEAARRRQQRESKSNAATPTKGPEGKVAGPADAPMDSGAEEEKAGAATVKKPSPSKARKKKLNKKGRKMAGRKRGRPKK” as the sequence, how does the “soluble on expression in E. coli” value read?
Answer: Its value is “soluble”.

Question: Which “soluble on expression in E. coli” value does the source give for “MGFGDIQTQPGTYSMHHMTTSTRITSRFLKNKTTNMKRLGVDPPCGVPEPKEDVLLAVSCDAFAFGQDDTNNDRITVEWTNTPDGAAKQFRREWF” here?
Answer: Its value is “not soluble”.

Question: With “MGFLKILRKQRAREREMRILILGLDNAGKTTLMKKFLDEPTDTIEPTLGFDIKTVHFKDFQLNLWDVGGQKSLRSYWKNYFESTDALIWVVDSSDRERLLQCSEELKKLLGEERLAGASLLVLANKSDLPGAIDVNSIAQVLDLHSIKSHHWKIFSCCALSGDRLVQAMTWLCDDVGSRLFILD” as the sequence, how does the “soluble on expression in E. coli” value read?
Answer: The value was “not soluble”.

Question: Which “soluble on expression in E. coli” value does the source give for “MGFQLRGTGTQELSIKELDLSARDAYGTTIKMLKQQLESSGVRVHAGAPYKLVLLSEENSQRTLSYTGGGNSAEYEIGTTLRYEILTHDNLHLLDDKLEVQKVFLHDGNNITGSDQESSETRKEMRRDLIQRMLIRLQLLTPEQLAQLQATAEAKAKAEADALEAARKAEAETPQQSPMELPNQLEHHHHHH” here?
Answer: The value was “not soluble”.

Question: Which “soluble on expression in E. coli” value does the source give for “MGFSFLLATVQKERMKRRSRTRSRSRRRAKQDPKTWVARYIPQDLLIEILTRLPPKSVMRFKCVSKFWSSLLSSRYFCNRFLIVPSQPQPSLYMCLLDRYNYSKSLILSSAPSTSPYSFVFDQDLTIRKMGGFFLRILRGFIFFTRNLKARIYNPTTRQLVILPTIKESDIIAGPPYNILYFICHDPVNDRYKLLCTVSYASDNDLQNLKSELWIFVLEAGGSWKRVANEFPHHVPSHLDLNMNGVLYFLAWTDPHTCMLVSFDVRSEEFNTMQVPRNAGDTLPRQEKGVVNRVW” here?
Answer: Its value is “not soluble”.

Question: For “MGGGERYNIPAPQSRNVSKNQQQLNRQKTKEQNSQMKIVHKKKERGHGYNSSAAAWQAMQNGGKNKNFPNNQSWNSSLSGPRLLFKSQANQNYAGAKFSEPPSPSVLPKPPSHWVPVSFNPSDKEIMTFQLKTLLKVQV”, which “soluble on expression in E. coli” value is on record?
Answer: Its value is “not soluble”.

Question: For “MGGSHHHHHHGMASALAELSEEALLSVLPTIRVPKAGDRVHKDECAFSFDTPESEGGLYICMNTFLGFGKQYVERHFNKTGQRVYLHLRRTRRPKEEDPATGTGDPPRKKPTRLAIGVEGGFDLSEEKFELDEDVKIVILPDYLEIARDGLGGLPDIVRDRVTSAVEALLSADSASRKQEVQAWDGEVRQVSKHAFSLKQLDNPARIPPCGWKCSKCDMRENLWLNLTDGSILCGRRYFDGSGGNNHAVEHYRETGYPLAVKLGTITPDGADVYSYDEDDMVLDPSLAEHLSHFGIDMLKMQKTDKTMTELEIDMNQRIGEWELIQESGVPLKPLFGPGYTGIRNLGNSCYLNSVVQVLFSIPDFQRKYVDKLEKIFQNAPTDPTQDFSTQVAKLGHGLLSGEYSKPVPESGDGERVPEQKEVQDGIAPRMFKALIGKGHPEFSTNRQQDAQEFFLHLINMVERNCRSSENPNEVFRFLVEEKIKCLATEKVKYTQRVDYIMQLPVPMDAALNKEELLEYEEKKRQAEEEKMALPELVRAQVPFSSCLEAYGAPEQVDDFWSTALQAKSVAVKTTRFASFPDYLVIQIKKFTFGLDWVPKKLDVSIEMPEELDISQLRGTGLQPGEEELPDIAPPLVTPDEPKAPMLDESVIIQLVEMGFPMDACRKAVYYTGNSGAEAAMNWVMSHMDDPDFANPLILPGSSGPGSTSAAADPPPEDCVTTIVSMGFSRDQALKALRATNNSLERAVDWIFSHIDDLDAEAAMDISEGRSAADSISESVPVGPKVRDGPGKYQLFAFISHMGTSTMCGHYVC”, which “soluble on expression in E. coli” value is on record?
Answer: The value was “not soluble”.

Question: Which “soluble on expression in E. coli” value does the source give for “MGGSHHHHHHGMASALAMAPSPSLVQVYTSPAAVAVWEWQDGLGTWHPYSATVCSFIEQQFVQQKGQRFGLGSLAHSIPLGQADPSLAPYIIDLPSWTQFRQDTGTMRAVRRHLFPQHSAPGRGVVWEWLSDDGSWTAYEASVCDYLEQQVARGNQLVDLAPLGYNYTVNYTTHTQTNKTSSFCRSVRRQAGPPYPVTTIIAPPGHTGVACSCHQCLSGSRTGPVSGRYRHSMTNLPAYPVPQHPPHRTASVFGTHQAFAPYNKPSLSGARSAPRLNTTNAWGAAPPSLGSQPLYRSSLSHLGPQHLPPGSSTSGAVSASLPSGPSSSPGSVPATVPMQMPKPSRVQQALAGMTSVLMSAIGLPVCLSRAPQPTSPPASRLASKSHGSVKRLRKMSVKEATPKPEPEPEQVIKNYTEELKVPPDEDCIICMEKLSTASGYSDVTDSKAIGSLAVGHLTKCSHAFHLLCLLAMYCNGNKDGSLQCPSCKTIYGEKTGTQPQGKMEVLRFQMSLPGHEDCGTILIVYSIPHGIQGPEHPNPGKPFTARGFPRQCYLPDNAQGRKVLELLKVAWKRRLIFTVGTSSTTGETDTVVWNEIHHKTEMDRNITGHGYPDPNYLQNVLAELAAQGVTEDCLEQQ” here?
Answer: Its value is “not soluble”.

Question: With “MGGSHHHHHHGMASALASYFDEHDCEPSDPEQETRTNMLLELARSLFNRMDFEDLGLVVDWDHHLPPPAAKTVVENLPRTVIRGSQAELKCPVCLLEFEEEETAIEMPCHHLFHSSCILPWLSKTNSCPLCRYELPTDDDTYEEHRRDKARKQQQQHRLENLHGAMYT” as the sequence, how does the “soluble on expression in E. coli” value read?
Answer: Its value is “not soluble”.

Question: Which “soluble on expression in E. coli” value does the source give for “MGGSHHHHHHGMASALDCCTENACSKPDDDILDIPLDDPGANAAAAKIQASFRGHMARKKIKSGERGRKGPGPGGPGGAGVARGGAGGGPSGD” here?
Answer: Its value is “not soluble”.

Reference: the DeepSol protein solubility set
